The nature of the data set: soluble on expression in E. coli; label from the status in PepcDB or PDB records.
Turning to “MSLMSNDRKVTEIENSPVTEVRPEEHAWYPDDSALAAPPAATPAAISDQLPSDRYLNRELSWLDFNARVLALAADKSMPLLERAKFLAIFASNLDEFYMVRVAGLKRRDEMGLSVRSADGLTPREQLGRIGEQTQQLASRHARVFLDSVLPALGEEGIYIVTWADLDQAERDRLSTYFNEQVFPVLTPLAVDPAHPFPFVSGLSLNLAVTVRQPEDGTQHFARVKVPDNVDRFVELAAREASEEAAGTEGRTALRFLPMEELIAAFLPVLFPGMEIVEHHAFRITRNADFEVEEDRDEDLLQALERELARRRFGSPVRLEIADDMTESMLELLLRELDVHPGDVIEVPGLLDLSSLWQIYAVDRPTLKDRTFVPATHPAFAERETPKSIFATLREGDVLVHHPYDSFSTSVQRFIEQAAADPNVLAIKQTLYRTSGDSPIVRALIDAAEAGKQVVALVEIKARFDEQANIAWARALEQAGVHVAYGLVGLKTHCKTALVVRREGPTIRRYCHVGTGNYNSKTARLYEDVGLLTAAPDIGADLTDLFNSLTGYSRKLSYRNLLVAPHGIRAGIIDRVEREVAAHRAEGAHNGKGRIRLKMNALVDEQVIDALYRASRAGVRIEVVVRGICALRPGAQGISENIIVRSILGRFLEHSRILHFRAIDEFWIGSADMMHRNLDRRVEVMAQVKNPRLTAQLDELFESALDPCTRCWELGPDGQWTASPQEGHSVRDHQESLMERHRSEGHHHHHH”, the “soluble on expression in E. coli” value is on record as “soluble”.

Take “MSLMSSDQQGKCPVDEETKKLWLREHGNEAHPGATAPGNQLECSANPQDNDKTPEYHTTVDLSQSREVSTIPRTNSDRNWIYPSEKQFYEAMMKKNWDPNSDDMKVVVPLHNSINERVWNYIKSWEDKQGGEACGGIKLTNFKGDSKKLTPRAWFRSRILHLAKPFDRHDWQIDRCGKTVDYVIDFYSTDLNDANSQQQPLIYLDVRPKLNSFEGFRLRFWKSLGFEGHHHHHH”: the “soluble on expression in E. coli” value was “soluble”.

Turning to “MSLMTKENNKSAAETEEWKKEYALRDELLKQEKENKKFEKELYQKQNKVRQAENKLKKEKSEYYNVLEDTEKYRMYIGEVGVQGEGVEVTLEDASYIPEGENVNSYIVHESHIFQVVNELYISGAALVAVNGQRLTHDSYIKCNGPVVTVDGVQHPAPFTVSAIGDPDVLLPSLNIAGGLIDQLSMDHISVSAEKEKNVQMKPILKTKEEGHHHHHH”, the “soluble on expression in E. coli” value was “soluble”.

As for “MSLMYSRKFQILKENIGLYHGDFMDFEVYDTEYMSIIFVKDRLDYTGKEIEPLWAFKTFDIQKDSIVVFRGRMEVTTENMKDLKDIKREKDIKTPIKSEDAINFVVEHFDVIDLKTIYLRQRLLVFIAKEVIESYNIKLKRDGDDLYFEDKKLSVCIACKGTVSAKIHLGINVKSKGAEHVKIIGLEDLGIKDIDKVMREIAINYAKEIDKIERDLRKTLPLIEGHHHHHH”, the “soluble on expression in E. coli” value is “soluble”.

Consider “MSLNAIHRILMTTDGSITAIIEAVTQKKVEVETLEQKIIRADRELAELLEIDEGDEVNYRVVYLRANGEIYAKAISFTPLKRLENSFREDLMRADIPIGKIMRKHNIEARREIRWSRVEEADLALAKELGIADRRVISRNYNIIHRGKVLINITEFFPMERFRIEGYHHHHH”, for which the “soluble on expression in E. coli” value was “soluble”.

In the case of “MSLNAQTLLANVAELVKTKLKPLVDDIDRKGYYPEAFMRELGAIGAVGIEAEGGNGLGLATRIAVLREIGKECGATSFSAWCQAACAWYLHQTPNQAVKDKYLADILQGKVLAGTGMSNTVKHLAGIEKHNLQAECVEGGYTVNGALPWVSNIGEDHIWANTAQIGGGYVMFITGGQREGVSLQNCPEFCALEGTHTFSLNFKDVFIPDEDIIAAPEQFAGYIQSIKAGFILLQIGIGAGVIDGSLGIIRLVNVVNAEVNSYLDDGYDSLKARLDGAWAETERLAGLAWDNTPDNLATLKLREAAAVLALAAAQSAALHSGAKGYLMRSPAQRRVGEAMFVAIVTPAIKHLCKEIAAIEAAKEGHHHHHH”, the “soluble on expression in E. coli” value is “not soluble”.

On to “MSLNGTSGSVARQLAARRIIGTSWRLFVAYLKWSGVLEVSFKGVEKLNRPGQLILANHPSLLDVVLLVGHVPEMNCIVKKDLQHNPAMSSQIKGAGYIPNEESEAMLETVKAVFDSGQSLLVFPEGTRTGWDGRVKMHRGAVSLGLRYAEVITPVCIKMNPPNFKKGQPWYRIPPKRIRYEITVGDDILPQDWLAEKPLPIAARRLNEYLQDYFTRKTIEGHHHHHH”, for which the “soluble on expression in E. coli” value was “not soluble”.

Take “MSLNIHPMWNTYPTLSKELTTTLRLMEQAVQIDNQEIQAAVHDMIHSGGKLLRPAYQLLFSYFGEQRDPKKATALAASIELLHTATLVHDDIVDEADTRRGLPTLRSRFGNSTAVYTGDYLFVCCFKLLSDYSSSLKSIQLNSRSMEKVLTGELGQMDNRYNFEVTIDQYLKNISGKTAELFALSCFVGAYESGTSQRFAKRCGEIGENIGLAFQIIDDILDYTQTADAIGKPVLEDVRQGVYSLPLIYALEANREVLLPLLMKKEALTDEETQEIYRLVHELGGVEKAQELATHYTEKALKEISKLPETKAQAKEQLYEITQTILTREGHHHHHH”: the “soluble on expression in E. coli” value is given as “soluble”.

Regarding “MSLNIISVGVNHKTAPIEIRERIALSEVQNKELVTDLVSSGLASEAMVVSTCNRTELYVVPGMPEVNCDYLKDYIISYKNARNAVRPEHFFSRFYCGTARHLFEVSCAIDSLVLGEGQILGQVKNAYRIAAEVGTAGILLTRLCHTAFSVAKKVKTRTKLMEGAVSVSYAAVELAQKIFSNLSMKKVLLIGAGETGELAAKHMYAKNARNIVITNRTQSKAEALAEELGTNRVLPYESYKEHLHEFDIIITAVSTKEYILNAAEMQQSMAKRRLKPVIILDLGLPRNVDPEVGALQNMFLKDIDALKHIIDKNLERRRAELPKVKAIIDEELVAFGQWLNTLKVRPTIVDLQSKEGHHHHHH”, the “soluble on expression in E. coli” value is given as “soluble”.

For “MSLNILVIGTGAIGSFYGALLAKTGHCVSVVARSDYETVKAKGIRIRSATLGDYTFRPAAVVRSAAELETKPDCTLLCIKVVEGADRVGLLRDAVAPDTGIVLISNGIDIEPEVAAAFPDNEVISGLAFIGVTRTAPGEIWHQAYGRLMLGNYPGGVSERVKTLAAAFEEAGIDGIATENITTARWQKCVWNAAFNPLSVLSGGLDTLDILSTQEGFVRAIMQEIRAVAAANGHPLPEDIVEKNVASTYKMPPYKTSMLVDFEAGQPMETEVILGNAVRAGRRTRVAIPHLESVYALMKLLELRTSKSLWGNEGHHHHHH”, the “soluble on expression in E. coli” value is reported as “soluble”.

Regarding “MSLNIVSMAREASSHKNSGKKKAIVKFIIRTLLHYSYIKKMNDNFAHDERKMLFKKQPNFLTKCITPYLRNGLSRQEIIDILVKHYDWFEYKFSTDARHQIYDDVLTLYKLEIDEQDYLINLSFDRNSRKEGELTLTLTDSKYNKYYVLAFTVVDNDIYIGCMQGGANDNGFSKLFTKSIYGLRPKSFMVETLRLLAVNLNINHIYAVKNSAHIYTAKRYGKKSKMIGLDYDRLWKEHNGESHNDYFYVLPIKSERKAMEDIKRPKRKMYRERYAWLDNYDKELKNTLDYICNEGHHHHHH”, the “soluble on expression in E. coli” value was “not soluble”.

As to “MSLNKIKRITAYKIDLPLKEGSYNWSEGKSVSVFDSTVIAVETENGTIGYGECCPLGPFYLPSYAEGVRAGIKELGPHLIGLDATNLFYLNHIMDRSLKGHPYVKSPIDVACWDIKGKTAGLPVSNLLGGVYDEDFILYRAISQDQPEAMADKVKEYRDQGYRRFQLKVGGNADEDIKRIRSVAEKMETGDKLIADANTGWLTHEAVRVVNGVSDIDVYIEQPCLSYDECFAVRKKTNHPFILDESINNMRTLLKAYHDQAMDAVNIKISKFGGITKAALARDICSELGIAMTIEDTWGGDIVTAAIAHLAHTTDPKLLFTATDFNSYVTVDIASGAPKRENGRMKSSKDPGLGIKPLSEVLGDSVVDIEGHHHHHH”, the “soluble on expression in E. coli” value was “not soluble”.

Take “MSLNKVITKKQTIPAFFKGNAPYIFAHRGGMALRPEQTQLAFDYAKQLGVDGFETDVRLTKDQQLIVFHDATVDRTTNGSGKVSAHTLAELKKLDAAYHFKDINGLTPYRGHAHTTILTFDELLKQYPDMYINVDLKDAPESYEGSIAPQIMFDTIAENQAFDRVLVTSFYKEQIVRFNKIAQGSVAIGASQQEVTEAFLKYHLLGGRYYQPLAQTFQMPTHFKGIDLTSSRFIKWLNDMNIIPGYYGVNSIDLMNDLYQKGAHTIVTDRPDLAQQFKQTIPNKEGHHHHHH”: the “soluble on expression in E. coli” value was “soluble”.

As to “MSLNLRESFISKFAASFVKPRFEIWFAAVLIPENDQAFWVRYSTLNPRNNRDLFPMGTLWVSLFDRKNPKNHRTTTQSFPYEEVLIKEHAIEFPEASVGPDHMSGKIQTSMSEDLAWDLEFRHKLEPTGHLPRWLEKTPINHIWGTNRVSELFWTFVPKFDDDPDDWSMEIVTVRPQPFTPTLTFVTLLKRGIPIHQHSIFRSLRSSTKIEYPKLHFKTRLDDYEISVESEMDKDQIAGYIYRDPDGSPRYIEQSDIGNVKCVIRHRRKETVLNAKQAAGVEFHGLRPWRKDHEYLDPYQTEGHHHHHH”, the “soluble on expression in E. coli” value is given as “not soluble”.

With “MSLNLSFAAIDFETATGYMESACAVGIVTVTDGEITDEYYSLIQPPENEYWRANMLVHGITPGMTESLPGFHAIYPEVKKRLQGNVVVAHNEQFDRNVLKNTMRMYGLDYDELSLPERWECTCRIYRSLGYKPVNLSACCEREGIELKHHEALSDARGCAKLYLNFLEKYRPLSTEGHHHHHH”, the “soluble on expression in E. coli” value is “soluble”.

Consider “MSLNMLVINGTPRKHGRTRIAASYIAALYHTDLIDLSEFVLPVFNGEAEQSELLKVQELKQRVTKADAIVLLSPEYHSGMSGALKNALDFLSSEQFKYKPVALLAVAGGGKGGINALNNMRTVMRGVYANVIPKQLVLDPVHIDVENATVAENIKESIKELVEELSMFAKAGNPGVEGGSHHHHHH”, for which the “soluble on expression in E. coli” value is “soluble”.

Turning to “MSLNNHKHARLTRLGRALLVNRVMQQNWTMRQASQAAGVSLRTGYKWLARFRSEGLDGLLDRSSRPHRSPKACAPEQVEHFAQQRRQRLPLWRIAREAGRSLATVARYMERIGLSRLASLEPPAPVRRYERASPGELLHIDTKRLGRIRGVGHRITGDRAQNRNRGIGWDAVHLAIDDFSRVSFARILDDEGGDQCAEFLHQATAYYASLGVRIDRVMTDNGSGYVSRTFRAVCVELGIRHIRTRPYTPKTNGKAERLVQTCLREWAYARPYTSSAERQAALQPFIDRYNWCRPHSALGHQPPITRIPDVNNLLRIDSEGHHHHHH”, the “soluble on expression in E. coli” value was “not soluble”.

For “MSLNNKIKPSILPGFMELLPKEQLVFNDIVSKITGVYEQNGFLPMDTPIIEKEEVLLAKSAGETEKQVYRIDNEDRKQVLRFDLTVPFSRFAAQYMSDLTFPFKRYQLGKVYRGERNQKGRYREFYQCDVDVVGNGNLSIKNDAFIINMASKALRKIGLDSYKFQISNRKILTGVLEGLNITNMQEVMILIDKYDKITEEQFLSELNKLIGEEKAKVISKVIKISGSSDEVVENLKKVEIKNEMLEKGIEEVEEVIKYLKLFGVEDSEYAINLKIIRGLDYYTGTVFETLLTGNESYGSICSGGRYDNLAQNYTENVLPGVGMSIGITRLFFVLREIGFIENYNSSLNEKYLIVPIGDTFEYCTKILNKLLVNGKSAEIYFEEGKLKKKLTYANKLDIKYVILIGEDEVTNKELVIKDMITGEQKKLNIEEIEGHHHHHH”, the “soluble on expression in E. coli” value is reported as “soluble”.

On to “MSLNPANLPFDSDTMLQGLRAWVECESPTWDTAAVERMLDLAAREMAIMGATIERIAGRQGFAGCVRARFPHPKQGEPGILIAGHLDTVHPVGTLSKLPFRREGNKAFGPGIFDMKGGNYLTLEAIKQLARASFTTPLPITVLFTPDEEVGTPSTRDIIEAEAARNKYVLVPEPGRPDNGVVTGRYAIARFNLEAIGKPSHAGATLSSGRSAIREMAKQILAIDAMTTEDCTFSVGIVHGGQWVNCVATTCTGEALSMAKRQADLDRGVDRMLALSGSSSDVTFKVTRGVTRPVWEPDSGTMALYEKARAVASQLGVSLPHGSAGGGSDGNFTGAMGIPTLDGLGVRGADAHTLNEHIEVDSLAERGRLMAGLLATLEEGHHHHHH”, for which the “soluble on expression in E. coli” value is “not soluble”.

Source of the values: the DeepSol protein solubility set.
